Measured values: article PMC11058611, “Characterization of a novel GH30 non-specific endoxylanase AcXyn30B from Acetivibrio clariflavus” (Applied Microbiology and Biotechnology, 2024)

Columns and labels:
purified protein [1] = substrate: O=[N+]([O-])c1ccc(O[C@@H]2OC[C@@H](O[C@@H]3OC[C@@H](O)[C@H](O)[C@H]3O)[C@H](O)[C@H]2O)cc1; assay: purified protein; format: biochemical, Acetivibrio clariflavus; settings: 50 mM sodium phosphate buffer, pH 6, 40 °C, 0.05–1 mM substrate
purified protein [2] = substrate: O=[N+]([O-])c1ccc(O[C@@H]2OC[C@@H](O[C@@H]3OC[C@@H](O[C@@H]4OC[C@@H](O)[C@H](O)[C@H]4O)[C@H](O)[C@H]3O)[C@H](O)[C@H]2O)cc1; assay: purified protein; format: biochemical, Acetivibrio clariflavus; settings: 50 mM sodium phosphate buffer, pH 6, 40 °C, 0.05–1 mM substrate

B1: AcXyn30B (Acetivibrio clariflavus DSM 19732) (protein)
chain: SYTASVDVNTTYQTLEGFGAAIAWYNDYLTTHPNKNDLYRILFYDSGLDILRLRNQYRNSNNFGYDDMEIVKYGKIMNPNLKVLLSSWSPPSDLKRNGVMNGGTLAKENGSFVYEKFADYWYNSLVAYRAKGIIPDYISIQNEPEYESGDWETCIFRETETSEYPSYAKALDAVYEKIKDLPDMPKILGVESAGIMNNTVQNYARYMDLSKVYGIAHHLYNGGDPYNPDSFNDIFRSLARDFADKPLFMTEYDYGTPFTTAELIHNSLVVEGVSGYFYWDLIWENSQRPLVAIEVPRNPEQWTTKEGYIISDFYYIMQQFAKFTDPGYKRVDASVSSNDIKVSAFVSPDKSKLTMIFINKGYSEHSVALDLKGYSSNKSIIYRTLPEGNERFKKVGSLFGNTVTLPARSVVTVALGVDDEEQIPPQLPTPTPKPESRSAYDIIQAEDYNEMYGIQCETIADDGNKNVAYIENGDYILFKGVDFGTGATGFEASVASAESGGAIEIRLDELYGTTVVKIPVSGTGDWHNYVTVKADIPEIKGKHDLYLVFTGGGGYLFNIDWFVFTGGTVENPVPEVIYGDVNGDGDFNSIDYGYLKMYLLGQIKEFPSKDGMIAADVNGDGTVNSIDYAYMKMRLLGQISKFPVE
notes: purchased from NZYTech (CZ0917); full-length 673 aa: signal peptide 28 aa, GH30 29-446, CBM6 469-593, dockerin 602-673
- Km (purified protein [1]): 210 µM
- kcat (purified protein [1]): 7.4 s⁻¹
- kcat/Km (purified protein [1]): 34900 M⁻¹ s⁻¹
- Km (purified protein [2]): 230 µM
- kcat (purified protein [2]): 10.4 s⁻¹
- kcat/Km (purified protein [2]): 56100 M⁻¹ s⁻¹
